US20180162938A1 (GANYMED PHARMACEUTICALS, published 2018)

Legend:
[1] = biological target: CLDN6 SNP (single nucleotide polymorphism) variant I143V (human) (UniProt P56747); experiment: flow cytometry, HEK293T transiently co-transfected with the claudin and a fluorescence reporter; positive control, by the legend MAB3656; other quadrants printed: Q1 47,20, Q3 20,26, Q4 0,33
[2] = biological target: T1, human CLDN6 (claudin 6), full length (human, UniProt P56747 1-220); experiment: flow cytometry, HEK293T transiently co-transfected with the claudin and a fluorescence reporter; positive control, by the legend MAB3656; other quadrants printed: Q1 58,39, Q3 18,6…, Q4 0,13
T1 construct: Expressed untagged from vector p3953 in HEK293T, HEK293 and CHO-K1 cells; endogenous in NEC8 and OV90 cells; In the Western blots it stood in denatured cell lysate; also called wild-type CLDN6
T1 sequence: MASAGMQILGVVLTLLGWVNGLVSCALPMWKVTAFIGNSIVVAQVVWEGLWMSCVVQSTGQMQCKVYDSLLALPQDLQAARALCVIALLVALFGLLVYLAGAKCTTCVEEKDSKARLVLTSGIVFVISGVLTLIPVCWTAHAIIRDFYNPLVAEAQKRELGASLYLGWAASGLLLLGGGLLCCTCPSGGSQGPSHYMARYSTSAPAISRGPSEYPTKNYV

[3] = biological target: human CLDN3 (claudin 3) (human) (UniProt O15551); experiment: flow cytometry, HEK293T transiently co-transfected with the claudin and a fluorescence reporter; other quadrants printed: Q1 0,32, Q3 63,10, Q4 36,2…
[4] = biological target: CLDN6 SNP (single nucleotide polymorphism) variant I143V (human) (UniProt P56747); experiment: flow cytometry, HEK293T transiently co-transfected with the claudin and a fluorescence reporter; other quadrants printed: Q1 0,18, Q3 64,8…, Q4 34,5…
[5] = biological target: human CLDN4 (claudin 4) (human) (UniProt O14493); experiment: flow cytometry, HEK293T transiently co-transfected with the claudin and a fluorescence reporter; other quadrants printed: Q1 0,47, Q3 51,89, Q4 46,45
[6] = biological target: T1, human CLDN6 (claudin 6), full length; experiment: flow cytometry, HEK293T transiently co-transfected with the claudin and a fluorescence reporter; other quadrants printed: Q1 0,09, Q3 75,0…, Q4 24,73
[7] = biological target: human CLDN9 (claudin 9) (human) (UniProt O95484); experiment: flow cytometry, HEK293T transiently co-transfected with the claudin and a fluorescence reporter; other quadrants printed: Q1 0,65, Q3 53,91, Q4 44,03
[8] = biological target: human CLDN3 (claudin 3) (human) (UniProt O15551); experiment: flow cytometry, HEK293T transiently co-transfected with the claudin and a fluorescence reporter; positive control, by the legend MAB4620; other quadrants printed: Q1 37,91, Q3 29,94, Q4 0,76
[9] = biological target: T1, human CLDN6 (claudin 6), full length; experiment: flow cytometry saturation binding (median fluorescence), HEK293 cells stably expressing human CLDN6

human CLDN3 (claudin 3) (human), sequence (O15551 whole entry): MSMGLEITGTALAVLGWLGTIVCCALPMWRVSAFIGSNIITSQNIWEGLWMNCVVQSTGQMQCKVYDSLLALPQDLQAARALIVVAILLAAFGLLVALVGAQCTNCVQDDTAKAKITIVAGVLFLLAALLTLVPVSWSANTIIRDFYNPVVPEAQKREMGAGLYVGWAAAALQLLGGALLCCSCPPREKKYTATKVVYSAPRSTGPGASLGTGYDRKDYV
human CLDN4 (claudin 4) (human), sequence (O14493 whole entry): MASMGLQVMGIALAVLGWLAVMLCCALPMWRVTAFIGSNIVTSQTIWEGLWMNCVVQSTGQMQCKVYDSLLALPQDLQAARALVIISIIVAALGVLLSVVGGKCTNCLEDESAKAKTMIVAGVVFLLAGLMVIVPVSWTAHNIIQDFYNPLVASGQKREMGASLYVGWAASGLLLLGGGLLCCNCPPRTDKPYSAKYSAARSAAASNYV
human CLDN9 (claudin 9) (human), sequence (O95484 whole entry): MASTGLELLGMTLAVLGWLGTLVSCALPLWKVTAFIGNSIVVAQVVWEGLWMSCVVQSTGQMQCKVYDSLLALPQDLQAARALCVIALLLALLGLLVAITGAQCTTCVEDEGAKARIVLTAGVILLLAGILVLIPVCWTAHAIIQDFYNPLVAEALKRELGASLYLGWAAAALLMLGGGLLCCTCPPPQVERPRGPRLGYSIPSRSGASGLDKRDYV

mouse anti-CLDN6 IgG2b (R&D Systems, MAB3656) (antibody)
percent of events in Q2 (reporter-positive, antibody-positive) [1]: 32.2
percent of events in Q2 (reporter-positive, antibody-positive) [2]: 22.8

Isotype (antibody)
percent of events in Q2 (reporter-positive, antibody-positive) [3]: 0.37
percent of events in Q2 (reporter-positive, antibody-positive) [4]: 0.44
percent of events in Q2 (reporter-positive, antibody-positive) [5]: 1.18
percent of events in Q2 (reporter-positive, antibody-positive) [6]: 0.12
percent of events in Q2 (reporter-positive, antibody-positive) [7]: 1.42

mouse anti-CLDN3 IgG2a (R&D Systems, MAB4620) (antibody)
percent of events in Q2 (reporter-positive, antibody-positive) [8]: 31.4

B1: murine monoclonal antibody muMAB 67A (antibody, V domains shown)
VH: EVQLQQSGPELVKPGASMKISCKASGYSFTGYTMNWVKQSHGKNLEWIGLINPYNGGIIYNQKFKGKATLTVDKSSSTAYMELLSLTSEDSAVFYCARDFGYVLDYWGQGTTLTVSS
VL: QIVLTQSPAIMSASPGEKVTITCSASSSVSYMHWFQQKPGTSPKLWIYSTSNLASGVPARFSGSGSGTSYSLTISRVAAEDAATYYCQQRSTYPPWTFGGGTKLEIK
EC50 (read off the curve) [9]: ~0.4 µg/mL
